Laboratory results taken from patent US20040259198.

System: recombinant human MAT II β subunit protein with N-terminal poly-His tag, expressed in E. coli from pQE-30 (Clone 5)

With “recombinant human MAT II α2 subunit expressed in E. coli from the pQE-30 vector” the “Km (L-Met)” value was “the cloned protein lowered the Km (L-Met) of the recombinant human MAT II α2 subunit from 80 µM to 34 µM”, the “Km for L-Met in the presence of the MAT II β subunit” value was “another kinetic form with a Km for L-Met of 32-34 µM was also apparent, in each case” and the “Km of MAT for L-methionine” value was “This association changed the kinetic properties of the enzyme and lowered the Km of MAT for L-methionine”.
